{"source": "paper PMC11189301", "about": "“Structure of the human outer kinetochore KMN network complex” (Nature Structural & Molecular Biology, 2024)", "binders": {"B1": {"name": "Knl1 RWD domains, residues 2131–2337, wild type (domain or fragment, H. sapiens, UniProt Q8NG31 2131-2337, looked up)", "chain": "SLSEWDVVEWSDDQAVFTFVYDTIQLTITFEESVVGFPFLDKRYRKIVDVNFQSLLDEDQAPPSSLLVHKLIFQYVEEKESWKKTCTTQHQLPKMLEEFSLVVHHCRLLGEEIEYLKRWGPNYNLMNIDINNNELRLLFSSSAAFAKFEITLFLSAYYPSVPLPSTIQNHVGNTSQDDIATILSKVPLENNYLKNVVKQIYQDLFQD", "notes": "Knl1, human, residues 2131-2337 (tandem RWD domains); also called Knl1^2131–2337; wild-type KNL1; source: E. coli BL21 (DE3), purified (Ni-NTA, reverse IMAC, Superdex 75); not shown: His6, N-terminal, cleaved"}, "B2": {"name": "KNL1 complex (Knl1 residues 1870–2342 with ZWINT) (complex, human)", "chain 1": "QMESQFLRDTICEESLREKLQDGRITIREFFILLQVHILIQKPRQSNLPGNFTVNTPPTPEDLMLSQYVYRPKIQIYREDCEARRQKIEELKLSASNQDKLLVDINKNLWEKMRHCSDKELKAFGIYLNKIKSCFTKMTKVFTHQGKVALYGKLVQSAQNEREKLQIKIDEMDKILKKIDNCLTEMETETKNLEDEEKNNPVEEWDSEMRAAEKELEQLKTEEEELQRNLLELEVQKEQTLAQIDFMQKQRNRTEELLDQLSLSEWDVVEWSDDQAVFTFVYDTIQLTITFEESVVGFPFLDKRYRKIVDVNFQSLLDEDQAPPSSLLVHKLIFQYVEEKESWKKTCTTQHQLPKMLEEFSLVVHHCRLLGEEIEYLKRWGPNYNLMNIDINNNELRLLFSSSAAFAKFEITLFLSAYYPSVPLPSTIQNHVGNTSQDDIATILSKVPLENNYLKNVVKQIYQDLFQDCHFYH", "chain 2": "MEAAETEAEAAALEVLAEVAGILEPVGLQEEAELPAKILVEFVVDSQKKDKLLCSQLQVADFLQNILAQEDTAKGLDPLASEDTSRQKAIAAKEQWKELKATYREHVEAIKIGLTKALTQMEEAQRKRTQLREAFEQLQAKKQMAMEKRRAVQNQWQLQQEKHLQHLAEVSAEVRERKTGTQQELDRVFQKLGNLKQQAEQERDKLQRYQTFLQLLYTLQGKLLFPEAEAEAENLPDDKPQQPTRPQEQSTGDTMGRDPGVSFKAVGLQPAGDVNLP", "notes": "Knl1, human, 2,342-residue protein, residues 1870-2342; ZWINT, human, constitutive partner of Knl1; Amplified from cDNA; also called Knl1–ZWINT; source: High-5 insect cells (baculovirus), purified (His-tag column, Resource Q)"}, "B3": {"name": "Pmf1 (natural protein, Homo sapiens, UniProt Q6P1K2 1-205, looked up)", "chain": "MAEASSANLGSGCEEKRHEGSSSESVPPGTTISRVKLLDTMVDTFLQKLVAAGSYQRFTDCYKCFYQLQPAMTQQIYDKFIAQLQTSIREEISDIKEEGNLEAVLNALDKIVEEGKVRKEPAWRPSGIPEKDLHSVMAPYFLQQRDTLRRHVQKQEAENQQLADAVLAGRRQVEELQLQVQAQQQAWQALHREQRELVAVLREPE", "notes": "Pmf1, subunit of human MIS12C; Subunit within the KMN network cryo-EM sample; source: High-5 insect cells, expressed and purified as part of MIS12C"}, "B4": {"name": "Spc24 (natural protein, Homo sapiens, UniProt Q8NBT2 1-197, looked up)", "chain": "MAAFRDIEEVSQGLLSLLGANRAEAQQRRLLGRHEQVVERLLETQDGAEKQLREILTMEKEVAQSLLNAKEQVHQGGVELQQLEAGLQEAGEEDTRLKASLLQLTRELEELKEIEADLERQEKEVDEDTTVTIPSAVYVAQLYHQVSKIEWDYECEPGMVKGIHHGPSVAQPIHLDSTQLSRKFISDYLWSLVDTEW", "notes": "Spc24, subunit of human NDC80C; coordinates traced G86–W197; Subunit within the KMN network cryo-EM sample; source: High-5 insect cells, expressed and purified as part of NDC80C"}}, "settings_in_all_cases": "both partners purified", "key": {"[1]": {"target": "T1, MIS12 complex (Mis12, Pmf1, Dsn1, Nsl1), wild type, full length (Homo sapiens, UniProt Q9H081 1-205; Q6P1K2 1-205; Q9H410 1-356; Q96IY1 1-281)", "T1 construct": "Mis12, subunit of human MIS12C; Pmf1, subunit of human MIS12C; Dsn1, subunit of human MIS12C; Nsl1, subunit of human MIS12C; The DS tag on Pmf1 is TEV cleavable; a cleavage is not described; also called MIS12C (WT); wild-type MIS12C; source: High-5 insect cells (baculovirus), purified (Strep-Tactin, Resource S, Superdex 200); copies: + + +", "T1 sequence (looked up) 1": "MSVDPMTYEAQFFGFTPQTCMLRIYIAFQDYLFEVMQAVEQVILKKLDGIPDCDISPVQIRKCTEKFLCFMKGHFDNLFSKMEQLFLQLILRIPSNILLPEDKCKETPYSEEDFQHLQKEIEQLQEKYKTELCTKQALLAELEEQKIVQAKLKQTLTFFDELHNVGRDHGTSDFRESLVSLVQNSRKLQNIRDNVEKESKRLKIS", "T1 sequence (looked up) 2": "B3 chain", "T1 sequence (looked up) 3": "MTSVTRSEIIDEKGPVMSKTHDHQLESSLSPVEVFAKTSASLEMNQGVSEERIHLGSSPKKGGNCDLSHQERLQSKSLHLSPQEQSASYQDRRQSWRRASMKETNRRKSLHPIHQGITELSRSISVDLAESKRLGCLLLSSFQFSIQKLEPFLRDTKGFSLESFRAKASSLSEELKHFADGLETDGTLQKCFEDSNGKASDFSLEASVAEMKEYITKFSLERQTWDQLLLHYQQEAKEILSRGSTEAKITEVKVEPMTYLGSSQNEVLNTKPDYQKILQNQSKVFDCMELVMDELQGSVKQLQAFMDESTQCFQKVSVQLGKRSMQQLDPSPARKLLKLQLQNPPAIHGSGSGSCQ", "T1 sequence (looked up) 4": "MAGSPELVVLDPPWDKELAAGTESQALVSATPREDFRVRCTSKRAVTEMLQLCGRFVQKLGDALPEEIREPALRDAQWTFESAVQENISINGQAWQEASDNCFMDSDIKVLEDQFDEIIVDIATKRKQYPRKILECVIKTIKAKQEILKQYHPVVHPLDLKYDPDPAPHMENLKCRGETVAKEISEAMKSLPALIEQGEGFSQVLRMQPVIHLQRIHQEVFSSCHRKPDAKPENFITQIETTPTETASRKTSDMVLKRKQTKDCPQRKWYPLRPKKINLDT", "test": "SEC; MIS12C or MIS12C^Nsl1ΔC mixed with Knl1 2131–2337 or its mutants at 4 µM each; 20 mM HEPES pH 7.8, 150 mM NaCl, 0.5 mM TCEP; Superose 6; fractions on SDS-PAGE"}, "[2]": {"target": "T2, MIS12 complex with Nsl1 truncated at the C terminus (Nsl1 1–264; residues 265–281 deleted) (Homo sapiens, UniProt Q9H081 1-205; Q6P1K2 1-205; Q9H410 1-356; Q96IY1 1-264)", "T2 construct": "Mis12, subunit of human MIS12C; Pmf1, subunit of human MIS12C; Dsn1, subunit of human MIS12C; Nsl1, subunit of human MIS12C, residues 1-264; also called MIS12C^Nsl1ΔC; Nsl^1–264; source: High-5 insect cells (baculovirus), purified (Strep-Tactin, Resource S, Superdex 200); copies: + + +", "T2 sequence (looked up) 1": "T1 sequence (looked up) 1", "T2 sequence (looked up) 2": "B3 chain", "T2 sequence (looked up) 3": "T1 sequence (looked up) 3", "T2 sequence (looked up) 4": "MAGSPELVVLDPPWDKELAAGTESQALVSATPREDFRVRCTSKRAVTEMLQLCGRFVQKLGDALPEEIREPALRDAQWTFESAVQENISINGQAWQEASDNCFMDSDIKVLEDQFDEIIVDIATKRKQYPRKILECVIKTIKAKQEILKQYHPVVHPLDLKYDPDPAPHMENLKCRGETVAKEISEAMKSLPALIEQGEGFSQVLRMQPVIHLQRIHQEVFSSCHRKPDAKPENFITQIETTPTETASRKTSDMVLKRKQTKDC", "test": "SEC; MIS12C or MIS12C^Nsl1ΔC mixed with Knl1 2131–2337 or its mutants at 4 µM each; 20 mM HEPES pH 7.8, 150 mM NaCl, 0.5 mM TCEP; Superose 6; fractions on SDS-PAGE"}, "[3]": {"target": "T1, MIS12 complex (Mis12, Pmf1, Dsn1, …)", "test": "cryo-EM structure; NDC80C, MIS12C and KNL1C mixed 1:1:1 and run on Superose 6 in 20 mM HEPES pH 8.0, 80 mM NaCl, 1 mM MgCl2, 1 mM TCEP; about 1 mg/ml on UltrAuFoil grids; 3.0 Å (MIS12C heads 3.8 Å)"}, "Mis12": {"target": "T3, Mis12 (Homo sapiens, UniProt Q9H081 1-205)", "T3 construct": "Mis12, subunit of human MIS12C; Subunit within the KMN network cryo-EM sample; source: High-5 insect cells, expressed and purified as part of MIS12C", "T3 sequence (looked up)": "T1 sequence (looked up) 1", "test": "cryo-EM structure; NDC80C, MIS12C and KNL1C mixed 1:1:1 and run on Superose 6 in 20 mM HEPES pH 8.0, 80 mM NaCl, 1 mM MgCl2, 1 mM TCEP; about 1 mg/ml on UltrAuFoil grids; 3.0 Å (MIS12C heads 3.8 Å)"}, "Dsn1": {"target": "T4, Dsn1 (Homo sapiens, UniProt Q9H410 1-356)", "T4 construct": "Dsn1, subunit of human MIS12C; Subunit within the KMN network cryo-EM sample; residues N-terminal to Arg92 are disordered; source: High-5 insect cells, expressed and purified as part of MIS12C", "T4 sequence (looked up)": "T1 sequence (looked up) 3", "test": "cryo-EM structure; NDC80C, MIS12C and KNL1C mixed 1:1:1 and run on Superose 6 in 20 mM HEPES pH 8.0, 80 mM NaCl, 1 mM MgCl2, 1 mM TCEP; about 1 mg/ml on UltrAuFoil grids; 3.0 Å (MIS12C heads 3.8 Å)"}, "Knl1 residues 1870–2342": {"target": "T5, Knl1 residues 1870–2342 (human, UniProt Q8NG31 1870-2342)", "T5 construct": "Knl1, human, 2,342-residue protein, residues 1870-2342; coordinates traced R2097–H2342; Subunit within the KMN network cryo-EM sample; also called extended version of the Knl1 C terminus; source: High-5 insect cells, expressed and purified as part of KNL1C", "T5 sequence (looked up)": "B2 chain 1", "test": "cryo-EM structure; NDC80C, MIS12C and KNL1C mixed 1:1:1 and run on Superose 6 in 20 mM HEPES pH 8.0, 80 mM NaCl, 1 mM MgCl2, 1 mM TCEP; about 1 mg/ml on UltrAuFoil grids; 3.0 Å (MIS12C heads 3.8 Å)"}, "Nsl1": {"target": "T6, Nsl1 (Homo sapiens, UniProt Q96IY1 1-281)", "T6 construct": "Nsl1, subunit of human MIS12C; Subunit within the KMN network cryo-EM sample; source: High-5 insect cells, expressed and purified as part of MIS12C", "T6 sequence (looked up)": "T1 sequence (looked up) 4", "test": "cryo-EM structure; NDC80C, MIS12C and KNL1C mixed 1:1:1 and run on Superose 6 in 20 mM HEPES pH 8.0, 80 mM NaCl, 1 mM MgCl2, 1 mM TCEP; about 1 mg/ml on UltrAuFoil grids; 3.0 Å (MIS12C heads 3.8 Å)"}, "Spc25": {"target": "T7, Spc25 (Homo sapiens, UniProt Q9HBM1 1-224)", "T7 construct": "Spc25, subunit of human NDC80C; coordinates traced D80–N224; Subunit within the KMN network cryo-EM sample; source: High-5 insect cells, expressed and purified as part of NDC80C", "T7 sequence (looked up)": "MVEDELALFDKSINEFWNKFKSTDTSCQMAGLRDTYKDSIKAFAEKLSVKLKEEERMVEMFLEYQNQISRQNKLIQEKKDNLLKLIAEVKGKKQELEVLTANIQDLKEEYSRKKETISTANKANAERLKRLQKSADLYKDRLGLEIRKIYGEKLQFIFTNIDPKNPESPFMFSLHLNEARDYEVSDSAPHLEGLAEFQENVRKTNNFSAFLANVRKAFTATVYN", "test": "cryo-EM structure; NDC80C, MIS12C and KNL1C mixed 1:1:1 and run on Superose 6 in 20 mM HEPES pH 8.0, 80 mM NaCl, 1 mM MgCl2, 1 mM TCEP; about 1 mg/ml on UltrAuFoil grids; 3.0 Å (MIS12C heads 3.8 Å)"}}, "data": [{"binder": "B1", "values": [{"measurement": "binding result", "setting": "[1]", "value": "binds"}, {"measurement": "binding result", "setting": "[2]", "value": "binds"}]}, {"binder": "B2", "values": [{"measurement": "binding result", "setting": "[3]", "value": "binds"}]}, {"binder": "B3", "values": [{"measurement": "binding result", "setting": "Mis12", "value": "binds"}, {"measurement": "binding result", "setting": "Dsn1", "value": "binds"}, {"measurement": "binding result", "setting": "Knl1 residues 1870–2342", "value": "binds"}]}, {"binder": "B4", "values": [{"measurement": "binding result", "setting": "Dsn1", "value": "binds"}, {"measurement": "binding result", "setting": "Nsl1", "value": "binds"}, {"measurement": "binding result", "setting": "Spc25", "value": "binds"}]}]}
